For one substance, Kd results are on record in article PMC12747170.

For the experiment, the target named is JEV-ED3 protein (domain III of the Japanese encephalitis virus envelope protein, aa 303-398, C-terminal His-tag) (Japanese encephalitis virus). The experiment can be described thus: BLI. A general note: BLI is a label-free optical method that tracks binding on a fibre tip over time.

Usually Kd stands for the equilibrium constant for the complex coming apart. A lower Kd goes with higher affinity. Regarding “recombinant Human EGFR Protein (ECD, hFc Tag) (from UniProt P00533 25-645) (Fc fusion)”, the Kd was determined as 283 nM.
